# Laboratory results from patent US20130344582.
# System: collagen IV (BD Biosciences)
substance,measurement,value
activated MMP-9 (Chemicon),alignment of liquid crystal on the surface (zymography; enzymatic digestion of the protein substrate),"after 30 minutes incubation with 1 pg MMP-9, the collagen IV has been digested and the liquid crystals align on the exposed SAM"
